For one molecule, fold accumulation in the 80S fraction, without CHX against CHX-treated results are on record in article doi:10.1101/2022.08.08.503151.

In this assay the target is 80S ribosome (yeast) (S. cerevisiae (endogenous in TB50a)) (UniProt P14126). The assay can be described thus: co-sedimentation.
Chain of UniProt P14126 (P14126 whole entry, looked up): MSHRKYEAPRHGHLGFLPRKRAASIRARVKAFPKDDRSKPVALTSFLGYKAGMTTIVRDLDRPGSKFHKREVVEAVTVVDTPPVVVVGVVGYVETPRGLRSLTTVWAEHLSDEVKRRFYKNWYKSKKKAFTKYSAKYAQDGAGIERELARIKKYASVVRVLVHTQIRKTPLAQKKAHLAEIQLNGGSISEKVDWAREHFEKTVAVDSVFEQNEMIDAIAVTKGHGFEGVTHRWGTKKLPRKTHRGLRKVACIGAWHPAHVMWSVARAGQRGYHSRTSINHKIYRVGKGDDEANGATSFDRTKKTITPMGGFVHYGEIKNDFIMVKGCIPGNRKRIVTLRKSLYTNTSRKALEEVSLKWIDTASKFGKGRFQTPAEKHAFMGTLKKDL

B1: Stm1 (suppressor of target of Myb protein 1) (natural protein)
chain: MSNPFDLLGNDVEDADVVVLPPKEIVKSNTSSKKADVPPPSADPSKARKNRPRPSGNEGAIRDKTAGRRNNRSKDVTDSATTKKSNTRRATDRHSRTGKTDTKKKVNQGWGDDKKELSAEKEAQADAAAEIAEDAAEAEDAGKPKTAQLSLQDYLNQQANNQFNKVPEAKKVELDAERIETAEKEAYVPATKVKNVKSKQLKTKEYLEFDATFVESNTRKNFGDRNNNSRNNFNNRRGGRGARKGNNTANATNSANTVQKNRNIDVSNLPSLA
As for B1, the fold accumulation in the 80S fraction, without CHX against CHX-treated amounted to 3 fold.
